Experimental data: paper PMC11884936, “MDC1 mediates Pellino recruitment to sites of DNA double-strand breaks” (Life Science Alliance, 2025)

Experiments:
[1] = molecular target: MDC1 (UniProt Q14676); assay: biotin-peptide pull-down, Western blot; details: reference: unphosphorylated S139 peptide; sites S139
[2] = molecular target: Pellino 1 (PELI1) (UniProt Q96FA3); assay: biotin-peptide pull-down, LC-MS/MS; details: reference: unphosphorylated T752 peptide; sites T752
[3] = molecular target: Pellino 2 (PELI2) (UniProt Q9HAT8); assay: biotin-peptide pull-down, LC-MS/MS; details: reference: unphosphorylated T752 peptide; sites T752
[4] = molecular target: RNF8 (UniProt O76064); assay: biotin-peptide pull-down, LC-MS/MS; details: reference: unphosphorylated T752 peptide; sites T752
[5] = molecular target: RNF8 (UniProt O76064); assay: biotin-peptide pull-down, Western blot
[6] = molecular target: Pellino 2 (PELI2) FHA domain, 1-275 (UniProt Q9HAT8); assay: biotin-peptide pull-down, stained gel
[7] = reference: unphosphorylated T752 peptide, sites T752
[8] = reference: unphosphorylated T719 peptide, sites T719

“H2AX (from UniProt P16104) pS139 peptide” was tested, and the “binding against the reference” value [1] was “stronger”.

“MDC1 743-757 (from UniProt Q14676) pT752 peptide” was tested, and the “binding against the reference” value [2] was “gained”, the “binding against the reference” value [3] was “gained” and the “binding against the reference” value [4] was “gained”. For the same substance, the “binding against the reference” value [5, 7] was “stronger” and the “binding against the reference” value [6, 7] was “gained”.

For “MDC1 (from UniProt Q14676) pT699 peptide”, the “binding against the reference” value ([5]; reference: unphosphorylated T699 peptide, sites T699) was “stronger”.

In the case of “MDC1 (from UniProt Q14676) pT719 peptide”, the “binding against the reference” value [5, 8] is reported as “stronger” and the “binding against the reference” value [6, 8] is reported as “gained”.

For “MDC1 (from UniProt Q14676) pT765 peptide”, the “binding against the reference” value ([5]; reference: unphosphorylated T765 peptide, sites T765) was “stronger”.
